Source: US20240166594A1, “PHOTOCAGED CITRULLINE ANALOGS AND METHODS FOR SITE-SPECIFIC INCORPORATION OF CITRULLINE INTO PROTEINS” (University of Massachusetts, priority 2021, published 2024)
“And” between values parts separate entries of the source, which are not always exact repeats. Equal values may be shown once. Where a SMILES comes first, the peptide text is derived from it.

Tests used:
R374Cit PAD4 = assay: Thermal shift assay with GSK199, R374Cit PAD4; assay type: binding; conditions: GSK199 10 μM
Procedure: (§1) A 50 μL reaction mixture (EXPI293F lysate containing overexpressed wild-type PAD4 (1.5 mg/mL) or R374Cit mutant (2 mg/mL), 1×PBS and DMSO (1% final)) was heated at various temperatures (25, 40, 50, 60, 65, 70, 75, 85 and 90° C.) for 5 min followed by flash freezing with liquid nitrogen. The samples were thawed and the precipitated proteins were separated by centrifugation (15000 rpm, 30 min) at 4° C. 40 μL of the supernatant was mixed with 10 μL of 5×SDS-PAGE loading dye and the mixture was boiled at 95° C. for 10 min. The proteins were separated by SDS-PAGE using a 4-20% gradient gel and the soluble fractions of PAD4 were quantitated by western blot analysis using a rabbit polyclonal anti-PAD4 antibody. This assay was also performed separately in the presence of CaCl2 (1 mM final) and a PAD4-selective ligand, GSK199 (10 μM final). For these assays, the reaction mixture was incubated with CaCl2 or GSK199 at room temperature for 5 min before heating up at different temperatures. All the reactions were performed at least in duplicate.

WT PAD4 = biological target: T1, WT PAD4 (Homo sapiens, UniProt Q9UM07); assay: Thermal shift assay with GSK199, wild-type PAD4; assay type: binding; conditions: GSK199 10 μM, EXPI293F lysate
T1 construct: FLAG (N); His tag (C); expressed in transfected cells; host or cells: EXPI293F
Procedure: as §1

[1] = Solubility of decaged peptide observed during SM70 decaging; assay type: physicochemical; conditions: decaged peptide from SM70; turbid even in 1:1 acetonitrile/PBS
Procedure: FIG. 10. (A) Decaging of SM70, a PAD4-derived peptide (residues 363-372 with SM60 at the 372 position. Prolines at 365 and 371 positions were replaced with W and A, respectively, and a lysine residue was added to the C-terminus for ease of synthesis.). (B) HPLC chromatogram of SM70 before and after 5 min of 365 nm irradiation. […] Even after performing the reaction in 1:1 acetonitrile/PBS, the solution became turbid upon the formation of the decaged peptide. Assay condition: 200 μM SM70, 2 mM DTT, 1:1 acetonitrile/PBS (pH 7.4). (C) ESI mass spectrum of the citrulline-containing peptide (decaged product).

HEK293T cells = assay: Cytotoxicity of PAD4 expression in HEK293T cells (CellTiter-Blue); assay type: cell-based
Procedure: HEK293T cells were seeded (2×10^4 cells/well) on 96-well plate and were allowed to grow in DMEM (supplemented with 10% heat-inactivated fetal bovine serum, 100 units/mL penicillin, 100 μg/mL streptomycin) for 48 h. Cells were then transfected with appropriate plasmids (120 ng PAD4 plasmid and 80 ng pIDTSMART eRF1 E55D for each well) using Lipofectamine 2000 (500 ng for each well) in Opti-MEM medium (Gibco). After 5 h, the medium was changed to DMEM and DMSO (for WT PAD4) or SM60 (0.25, […] and 1 mM for R374Cit PAD4) was added. Cells were then allowed to grow at 37° C. for 48 h. Cell viability was measured before and after photodecaging (by UV treatment for 3 min) using CellTiter-Blue® (Promega) by following the manufacturer's protocol. Untransfected cells served as the control. All the experiments were performed in triplicate.

[2] = Michaelis-Menten kinetics of wild-type and mutant PAD4 (COLDER assay); assay type: biochemical; conditions: substrate BAEE, 10 mM CaCl2, pH 7.4, 37° C.
Procedure: PAD4 (50 nM final for wild-type, 75 nM final for R372Cit, and 100 nM final for R374Cit) was added to a pre-warmed (10 min, 37° C.) reaction mixture (60 μL final) containing various concentrations of BAEE (0, 0.5, 1, 2.5, 5 and 10 mM), CaCl2 (10 mM), TRIS-HCl (100 mM, pH 7.4), NaCl (50 mM) and DTT (2 mM). This mixture was incubated at 37° C. for 45 min (for wild-type), 90 min (for R374Cit) and 120 min (for R372Cit) followed by quenching with liquid nitrogen. The rate of citrulline formation at various BAEE concentrations was quantified with the COLDER assay. The rates were plotted against the BAEE concentration and were fit to the Michaelis-Menten equation using Graphpad Prism. All the reactions were performed at least in duplicate.

[3] = Calcium-dependence of wild-type PAD4 (COLDER assay); assay type: biochemical; conditions: 10 mM BAEE, pH 7.4, 37° C.
Procedure: PAD4Bac (purified from bacterial expression system) and PAD4Mam (purified from mammalian expression system) (6 μL of 0.5 μM stock, 50 nM final) were added to separate pre-warmed (10 min, 37° C.) reaction mixtures (60 μL final) containing BAEE (10 mM), various concentrations of CaCl2 (0, 0.25, 0.5, 1, 2.5, 5 and 10 mM), TRIS-HCl (100 mM, pH 7.4), NaCl (50 mM) and DTT (2 mM). This mixture was incubated at 37° C. for 45 min followed by flash freezing with liquid nitrogen. The production of citrulline at various concentration of CaCl2 by PAD4 was quantified with the COLDER assay. (Tanikawa, et al. 2012 Nat. Commun. 3, 676; Zhang, et al. 2012 Proc. Natl. Acad. Sci. USA 109, 13331-13336.)
The calcium-dependence of citrulline production by PAD4 was fit to the equation 2,
v=Vmax*[Ca^2+]^h/(K0.5^h+[Ca^2+]^h) (2)
using Graphpad Prism, where v is the velocity of the reaction, Vmax is the maximum velocity of the reaction, [Ca^2+] is the concentration of calcium, h is the hill slope and K0.5 is the calcium concentration that gives half-maximal velocity. All the reactions were performed at least in duplicate.

histone H3 = assay: Histone H3 citrullination in live HEK293T cells (western blot); assay type: cell-based; conditions: calcium and ionomycin, 3 h
Procedure: HEK293T cells were seeded (4×10^5 cells/well) on 6-well plates and were allowed to grow in DMEM (supplemented with 10% heat-inactivated fetal bovine serum, 100 units/mL penicillin, 100 μg/mL streptomycin) for 48 h. Cells were then transfected with appropriate plasmids (3 μg PAD4 plasmid and 2 μg pIDTSMART eRF1 E55D for each well) using Lipofectamine 2000 (12.5 μg for each well) in Opti-MEM medium (Gibco). After 5 h, the medium was changed to DMEM and DMSO (for WT PAD4) or SM60 (1 mM for R374Cit PAD4) was added. Cells were then allowed to grow at 37° C. for 48 h. Cells were washed with serum-free DMEM (supplemented with 100 units/mL penicillin, […] streptomycin), resuspended in the same medium and were irradiated with 365 nm UV for 3 min. Then the cells were treated with CaCl2 (1 mM) and a combination of CaCl2 (1 mM) and ionomycin (5 μM) for 3 h at 37° C. After this, cells were lysed and the lysates were analyzed by Western blotting using anti-histone H3 citrulline (R2,8,17) and anti-histone H3 primary antibodies. PAD4 expression was quantified by using an anti-PAD4 primary antibody. Band intensities for citrullinated histone H3 were normalized against those for histone H3 and PAD4 using the following algorithm,
Normalized histone H3Cit=[H3Cit/(H3_33 PAD4)]×10^6
All the experiments were performed in triplicate.

[4] = Thermal shift assay, melting temperature of PAD4 in EXPI293F lysate; assay type: physicochemical; conditions: no ligand
Procedure: as §1

T1 sequence (Q9UM07 whole entry G112A): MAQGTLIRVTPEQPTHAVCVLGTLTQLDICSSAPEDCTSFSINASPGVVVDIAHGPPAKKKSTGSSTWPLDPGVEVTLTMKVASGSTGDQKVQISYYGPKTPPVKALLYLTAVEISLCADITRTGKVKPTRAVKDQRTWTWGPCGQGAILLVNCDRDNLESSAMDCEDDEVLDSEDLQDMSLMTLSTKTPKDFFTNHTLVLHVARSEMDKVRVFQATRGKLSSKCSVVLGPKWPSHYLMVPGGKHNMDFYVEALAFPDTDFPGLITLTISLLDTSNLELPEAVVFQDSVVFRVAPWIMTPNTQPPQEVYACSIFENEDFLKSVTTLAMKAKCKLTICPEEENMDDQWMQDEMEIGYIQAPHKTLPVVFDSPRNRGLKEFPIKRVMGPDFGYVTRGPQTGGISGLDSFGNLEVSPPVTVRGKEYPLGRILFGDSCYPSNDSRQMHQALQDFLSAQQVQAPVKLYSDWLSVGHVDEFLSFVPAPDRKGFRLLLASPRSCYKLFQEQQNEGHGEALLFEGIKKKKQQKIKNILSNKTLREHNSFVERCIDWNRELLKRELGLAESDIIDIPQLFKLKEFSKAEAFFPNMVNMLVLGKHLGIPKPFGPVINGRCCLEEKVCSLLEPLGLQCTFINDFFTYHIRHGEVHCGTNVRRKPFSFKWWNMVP

With CCn1c(-c2nc3cc(C(=O)N4CCCC(N)C4)cc(OC)c3n2C)cc2cccnc21 (stereo not shown) [GSK199] the “effect on Tm of R374Cit PAD4” value (R374Cit PAD4; EXPI293F lysate) was “did not increase the Tm of the R374Cit mutant”, the “binding to R374Cit mutant” value (R374Cit PAD4; inferred from thermal shift) was “binds poorly to the R374Cit mutant” and the “effect on Tm of WT PAD4” value (WT PAD4) was “increased the Tm of WT PAD4”.
In the case of CC(C)C[C@H](NC(=O)[C@@H](N)[C@@H](C)O)C(=O)N[C@@H](Cc1c[nH]c2ccccc12)C(=O)N[C@H](C(=O)N[C@H](C(=O)N[C@@H](Cc1ccccc1)C(=O)N[C@@H](CC(=O)O)C(=O)N[C@@H](CO)C(=O)N[C@@H](C)C(=O)N[C@@H](CCCNC(N)=O)C(=O)N[C@@H](CCCCN)C(=O)O)C(C)C)C(C)C [decaged product] (HELM PEPTIDE1{T.L.W.V.V.F.D.S.A.[Cit].K}$$$$V2.0), the “solubility in aqueous buffer” value [1] is reported as “extremely low solubility in aqueous buffer”.
In the case of “PAD4: Protein Arginine Deiminase 4 (WT and R374Cit) overexpressed in HEK293T cells”, the cytotoxicity of expression (HEK293T cells) is reported as “does not cause any cytotoxicity”.
In the case of “PAD4Bac: wild-type PAD4 purified from bacterial (E. coli) expression system”, the Km [2] is reported as 700 ± 100 µM, the kcat [2] is reported as 3.4 ± 0.2 S^−1 and the “K0.5 (Ca^2+ concentration for half-maximal activity)” value [3] is reported as 0.9 mM and 0.9 ± 0.10 mM.
With “PAD4Mam: wild-type PAD4 purified from mammalian expression system (HEK293T), N-terminal FLAG and C-terminal His tag” the Km [2] was 1100 ± 200 µM, the kcat [2] was 3.7 ± 0.1 S^−1 and the “K0.5 (Ca^2+ concentration for half-maximal activity)” value [3] was 0.9 mM and 0.9 ± 0.05 mM.
In the case of “WT PAD4: wild-type Protein Arginine Deiminase 4”, the “times more active than the R374Cit mutant for the citrullination of histone H3” value (histone H3) is reported as 6 times and the “melting temperature (Tm)” value [4] is reported as 62.9 °C.
